According to publication PMC8393709:

How the values were obtained:
[1] = target: HPV16 E6 Y43E/F47R, full length (RLuc- and YFP-tagged); assay: BRET; settings: parent: est. 150; read off a plot
[2] = target: HPV16 E6N Y43E/F47R, amino acids 1 to 80 (RLuc- and YFP-tagged); assay: BRET; settings: HEK 293T cells; RLuc- and YFP-tagged E6N fragments (amino acids 1 to 80); parent: est. 160; read off a plot
[3] = target: HPV16 E6N Y43E/F47R, amino acids 1 to 80 (RLuc- and YFP-tagged); assay: BRET binding curve; settings: HEK 293T cells; value at the highest YFP/RLuc point of each curve (mutant x about 860, E6N x about 880); non-specific level (E6N + UL44) about 65; parent: est. 250; read off a plot

Substance | response [1] | response [2] | response [3]
HPV16 E6, wild-type, full length (RLuc-E6 and YFP-E6) (from UniProt P03126) Y43E; F47R | 53 a.u. (mBR) | – | –
HPV16 E6N, N-terminal domain of E6, amino acids 1 to 80 (RLuc-E6N and YFP-E6N) Y43E; F47R | – | 70 a.u. (mBR) | 120 a.u. (mBR)
